B1: YTH24.5-hIgG1-AAA-PBD: YTH24.5 in human IgG1-AAA format conjugated to PBD drug-linker B1 (conjugate)
VH: QVNLLQSGAALVKPGASVKLSCKASSYTFTDYYIHWVKQSHGKTLEWIGYINPKSGFTNYNEKFRRKATLTVDKSTNTAYMDISRLTSEDSATYYCTRRTGVIPMDAWGQGASVTVSS
VL: DVVMTQTPVSLSVSLGGQVSISCRSSQSFVSSDGNTYLNWYLQKPGQSPQLLIYKVSNRLSGVPDRFSGSGSGTDFTLKISRVEHDDLGVYYCGQASKIPLTFGSGTKLEIK
B2: YTH54.12-hIgG1-AAA-PBD: YTH54.12 in human IgG1-AAA format conjugated to PBD drug-linker B1 (conjugate)
VH: EVQLVESGGGLVQPGGSMKLSCAASGFTFSDYYMAWVRQAPKKGLEWVASMSFAGSSTYYGDSVKGRFTISRDNAKTTLYLQMNSLRSEDTATYYCARMYTTDYYLYWYFDFWGPGTMVTVSS
VL: DVQMTQSPSYLAASPGESVSISCKASKSISNYLAWYQQKPGEANKILIYSGSTLQSGTPSRFSGSGSGTDFSLTIRNLEPEDFAVYYCQQYDEKPLTFGSGTKLEIK
B3: YTH54.12 (antibody)
heavy: EVQLVESGGGLVQPGGSMKLSCAASGFTFSDYYMAWVRQAPKKGLEWVASMSFAGSSTYYGDSVKGRFTISRDNAKTTLYLQMNSLRSEDTATYYCARMYTTDYYLYWYFDFWGPGTMVTVSSAQTTAPSVYPLAPGCGDTTSSTVTLGCLVKGYFPEPVTVTWNSGALSSDVHTFPAVLQSGLYTLTSSVTSSTWPSQTVTCNVAHPASSTKVDKKVERRNGGIGHKCPTCPTCHKCPVPELLGGPSVFIFPPKPKDILLISQNAKVTCVVVDVSEEEPDVQFSWFVNNVEVHTAQTQPREEQYNSTFRVVSALPIQHQDWMSGKEFKCKVNNKALPSPIEKTISKPKGLVRKPQVYVMGPPTEQLTEQTVSLTCLTSGFLPNDIGVEWTSNGHIEKNYKNTEPVMDSDGSFFMYSKLNVERSRWDSRAPFVCSVVHEGLHNHHVEKSISRPPGK
light: DVQMTQSPSYLAASPGESVSISCKASKSISNYLAWYQQKPGEANKILIYSGSTLQSGTPSRFSGSGSGTDFSLTIRNLEPEDFAVYYCQQYDEKPLTFGSGTKLEIKRADAAPTVSIFPPSMEQLTSGGATVVCFVNNFYPRDISVKWKIDGSEQRDGVLDSVTDQDSKDSTYSMSSTLSLTKVEYERHNLYTCEVVHKTSSSPVVKSFNRNEC

Tests used:
[1] = Dosimetry in humanised NSG mice; type: in vivo; conditions: 3 mg/kg, culled for weight loss >15%
Procedure: For dosimetry in humanised NSG mice, adult female NSG mice were sublethally irradiated with 2.5 Gy on the day before transplantation. Cryopreserved purified CD34+ cells from mobilized peripheral blood from a normal donor were thawed and 0.5×10^6 cells in PBS were injected intravenously into the tail vein. Human engraftment (human CD45+ cells) in the blood of all mice was determined by flow cytometry at 12 weeks post-transplant. Mice were assigned to treatment cohorts so that the median human engraftment in the blood for between cohorts was as similar as possible. Mice were treated with 0.3 mg/kg or 3 mg/kg Mab or ADC. Blood samples were taken after 7 days and analysed by flow cytometry. The bone marrow, blood and spleen of mice were analysed at 14 days post-treatment.

293T (CD45-) = experiment: Cell viability assay 72 h (PrestoBlue), 293T; type: cell-based, human; conditions: drug-linker B1
Procedure: OCIM1, Jurkat and Nalm6 cells were seeded at 0.5×10^5/mL were cultured for 72 hours in presence of Mab or ADC or medium (in triplicate wells) in wells of flat bottom 96-well plates. 293T cells were seeded at 9.3×10^3 cells per well in flat bottom 96-well plates and allowed to adhere the plate for up to 24 hours. 293T cells were subsequently cultured with Mab or ADC or medium (in triplicate wells) for 72 hours. PrestoBlue® Cell viability Reagent (Thermo Fisher Scientific) was added to each and incubated for up to 1.5 hours. Fluorescence intensity from each well was detected using a FLUOstar OPTIMA microplate reader (BMG Labtech). Data points are mean±s.d. for representative experiments.

[2] = Dosimetry in non-humanised NSG mice; type: in vivo; conditions: for Comment (survival / culling): non-humanised NSG mice, monitored 2 weeks; for mice culled due to weight loss: human (hIgG1-AAA) format, ≥3 mg/kg, humanised and non-humanised mice
Procedure: For dosimetry in non-humanised NSG mice, adult NSG mice were injected intravenously via the tail vein with unconjugated Mab or ADC up to 5 mg/kg. Mice regularly monitored over a period of 2 weeks for any signs of morbidity. Mice were culled if rapid weight loss (>15%) occurred over a period of 2 days.

CD34+ PBSC (CD45+) = experiment: Clonogenic assay, CD34+ PBSC treated 2 h with Mab or ADC; type: cell-based, human
Procedure: Cryopreserved purified CD34+ cells from mobilized peripheral blood from three normal donors were thawed and cultured at […] complete medium (RPMI 1640 plus 10% fetal calf serum) in presence of Mab, ADC or medium alone for 2 hours in 96-well U-bottom plates. Cells were mixed and 40 uL was transferred to 2 ml of StemMACS HSC-CFU complete with Epo (Miltenyi Biotech) and mixed well. 0.5 ml (250 cells) was plated into triplicate into wells of a 24-well plate. Colonies were enumerated between 10-14 days. Data is mean of three donors±s.d.

human CD45+ OCIM1 cells = experiment: Complement dependent cytotoxicity (51Cr release) assay; type: cell-based; conditions: 10 ug/ml antibody, 10% baby rabbit serum
Procedure: 1×10^6 human CD45+ OCIM1 cells in 100 uL of complete medium (RPMI 1640 plus 10% fetal calf serum) were radiolabelled with 100 μCi ^51Cr sodium chromate for 1 h at 37° C. followed by three washes with complete medium. Labelled cells were incubated at 5×10^4/mL in triplicate wells of a 96 well plate in presence of YTH24.5 alone, YTH54.12 alone or with both antibodies for 10 mins at room temperature before of addition of baby rabbit serum at a final concentration of 10%. A final concentration of 5% Triton X-100 was added to control wells of cells to determined maximum lysis. 50 uL of supernatant from each well was transferred into a white-walled plates containing 150 uL scintillation liquid in each well. Plates were read in a MicroBeta counter (Trilux) after overnight incubation. The percentage of specific lysis was calculated using the standard formula [(experimental−spontaneous release)/(maximum load-spontaneous release)×100] and expressed as the mean of triplicate samples.

[3] = system: luciferase expressing human CD45+ Jurkat cells; experiment: Jurkat leukaemia model in NSG mice (bioluminescence, survival); type: in vivo; conditions: 1 mg/kg, day 16
Procedure: Adult NSG mice were sublethally irradiated with 2 Gy on the day before injection of cells. 5×10^6 fire fly luciferase expressing Jurkat cells in PBS were injected intravenously into the tail vein of mice. On the following day PBS, MAbs or ADC were injected intravenously into the tail vein at a dose of 1 mg/kg. Mice were regularly monitored for signs of morbidity and weight loss for the duration of the experiment. For imaging, mice were injected intraperitoneally with 3 mg D-luciferin in PBS. Mice were initially anesthetized with 4% isoflurane and then maintained at 2% isoflurane. Ten minutes after injection of D-luciferin, mice were imaged inside a IVIS Lumina III (PerkinElmer). A sub-saturating image was captured using the auto-exposure setting in the Living Image software.

human CD34+ cells = experiment: Ex vivo treatment of CD34+ cells with Mab or ADC prior to engraftment in NSG mice; conditions: CD34+ cells treated at 1 nM and 0.1 nM for 4 hours before transplantation; week 8
Procedure: Adult female NSG mice were sublethally irradiated with 2.5 Gy on the day before transplantation. Cryopreserved purified CD34+ cells from mobilized peripheral blood from a normal donor were thawed and cultured in complete medium (RPMI 1640 plus 10% fetal calf serum) in presence of Mab, ADC or medium alone for 4 hours. Cells were washed in phosphate buffered saline (PBS) and 0.5×10^6 cells in PBS were injected intravenously into the tail vein of mice. Engraftment of transplanted human cells (hCD45+) in the bone marrow of mice was determined by flow cytometry at 8 weeks after transplantation.

target cells = experiment: Live-imaging microscopy of antibody internalisation; type: cell-based; conditions: live-imaging microscopy (data not shown)
Excerpt: In particular, the lysosomal pathway can be important in providing an environment for cleavage of the antibody-drug linkers, hereby releasing the drug in the target cells for highly specific cell killing.

human CD45+ cells = experiment: Depletion of human CD45+ cells in humanised NSG mice; type: in vivo
Procedure: Adult female NSG mice were sublethally irradiated with 2.5 Gy on the day before transplantation (day −57). Cryopreserved purified CD34+ cells from mobilized peripheral blood from a normal donor were thawed and 0.5×10^6 cells in PBS were injected intravenously into the tail vein of mice (day −56). Human engraftment (human CD45+ cells) in the blood of mice was assessed at day −14 and day −1. Mice were assigned to treatment cohorts so that the median human CD45+ engraftment in the blood between the cohorts was as similar as possible. Mice were injected with 0.3 mg/kg or 1 mg/kg Mab or ADC intravenously via the tail vein. Blood samples were taken after 7 days and analysed by flow cytometry. The bone marrow, blood and spleen of mice were analysed at two weeks post-treatment.

[4] = PBD ADCs in human IgG1-AAA format

Molecule	Comment (survival / culling) [1]	EC50 (293T (CD45-))	Comment (survival / culling) ([2]; 0.5 mg/kg i.v.)	Comment (survival / culling) ([2]; 5 mg/kg i.v.)	mice culled due to weight loss [2]	inhibition of colony formation (CD34+ PBSC (CD45+); [4])	lytic activity on OCIM1 cells (human CD45+ OCIM1 cells)	bioluminescent signal of naked antibody group relative to the corresponding ADC group [3]	engraftment of human CD45+ cells in the bone marrow of NSG mice (human CD34+ cells)	internalisation (target cells)	Mean % hCD45 levels in blood, 1 week post-treatment (human CD45+ cells; 0.3 mg/kg i.v.)	Mean % hCD45 levels in blood, 2 weeks Post-treatment (human CD45+ cells; 0.3 mg/kg i.v.)	Mean % hCD45 levels in blood, 1 week post-treatment (human CD45+ cells; 1 mg/kg i.v.)	Mean % hCD45 levels in blood, 2 weeks Post-treatment (human CD45+ cells; 1 mg/kg i.v.)	course of the levels of human CD45+ cells in blood (human CD45+ cells; 1 mg/kg, two week period)	Mean % hCD45 levels in blood, Pre-treatment (human CD45+ cells; group later dosed 0.3 mg/kg)	Mean % hCD45 levels in blood, Pre-treatment (human CD45+ cells; group later dosed 1 mg/kg)	inhibition of colony formation (CD34+ PBSC (CD45+); MAbs in human IgG1-AAA or rat IgG2b format, Isotype control and Isotype control PBD rat IgG2b format only)
B1	1 culled day 6, 1	134 nM	All alive at day 14	2 culled at day 6 -	4 of the 6	dose-dependent inhibition of colony formation	–	–	–	–	–	–	–	–	–	–	–	–
B2	1 culled on day 9	16.5 nM	All alive at day 14	All alive at day 14	1 of the 6	dose-dependent inhibition of colony formation	–	–	–	–	–	–	–	–	–	–	–	–
B3	–	–	–	All alive at day 14	–	–	no lytic activity	10 fold	prevented engraftment	substantially internalised via a lysosomal pathway	3.19%	3.81%	1.02%	1.84%	transient reduction	5.52%	5.98%	do not inhibit colony formation

From patent US20220096654A1, “PYRROLOBENZODIAZEPINE-ANTIBODY CONJUGATES AND USES THEREOF” (ADC THERAPEUTICS SA, priority 2020, published 2022)
